Measurements: US20100204445A1
Ends that are not written are not given here.

How the values were obtained:
[1] = biological target: recombinant cohesin (CipA of Clostridium josui, BAA32429) (Clostridium josui); assay: batch elution of N-terminal fusion from cohesin carrier with 5 mM EGTA at 4 C, SDS-PAGE densitometry, 360 min set to 100
[2] = biological target: recombinant cohesin (CipA of Clostridium josui, BAA32429) (Clostridium josui); assay: SPR (Biacore T-100), fusion captured via anti-JNK3 antibody on Protein A chip, cohesin as analyte, +Ca2+ (1 mM CaCl2), no EGTA
[3] = biological target: recombinant cohesin (CipA of Clostridium josui, BAA32429) (Clostridium josui); assay: SPR (Biacore T-100), same format, 5 mM EGTA in running buffer
[4] = biological target: recombinant cohesin (CipA of Clostridium josui, BAA32429) (Clostridium josui); assay: SPR as in Example 7, under the action of a chelating agent
[5] = biological target: recombinant cohesin (CipA of Clostridium josui, BAA32429) (Clostridium josui); assay: batch elution of C-terminal fusion from cohesin carrier with 5 mM EGTA at 4 C, SDS-PAGE densitometry, 360 min set to 100

Row | Binder | rate of eluted recombinant protein (%) at 5 min [1] [%] | rate of eluted recombinant protein (%) at 30 min [1] [%] | rate of eluted recombinant protein (%) at 60 min [1] [%] | rate of eluted recombinant protein (%) at 360 min [1] [%] | Kd [2] [nM] | koff [2] [s⁻¹] | kon [2] [M⁻¹ s⁻¹] | Kd [3] [nM] | koff [3] [s⁻¹] | kon [3] [M⁻¹ s⁻¹] | Kd [4] [nM] | rate of eluted recombinant protein (%) at 5 min [5] [%] | rate of eluted recombinant protein (%) at 30 min [5] [%] | rate of eluted recombinant protein (%) at 60 min [5] [%] | rate of eluted recombinant protein (%) at 360 min [5] [%]
1 | recombinant JNK3 of which a wild-type dockerin was fused at the N-terminal (protein, not shown: large carriers; small tags and cut ends, not fully specified (C-terminus)) MGLKGDVNNDGAIDALDIAALKKAILTQSTSNINLTNADMNNDGNIDAIDFAQLKVKLLN | 11.5 | 28.8 | 39.6 | 100 | 6.5 | 0.0053 | 810000 | 3.9 | 0.0079 | 2e+06 | – | – | – | – | –
2 | recombinant JNK3 of which an L16T/I49T-substituted dockerin polypeptide is fused at the N-terminal (protein, not shown: large carriers; small tags and cut ends) MGLKGDVNNDGAIDATDIAALKKAILTQSTSNINLTNADMNNDGNIDATDFAQLKVKLLN | 55.2 | 100 | 100 | 100 | 3.2 | 0.015 | 4.9e+06 | 12 | 0.029 | 250000 | – | – | – | – | –
3 | recombinant JNK3 of which an I49S-substituted dockerin polypeptide is fused at the N-terminal (protein, not shown: large carriers; small tags and cut ends) MGLKGDVNNDGAIDALDIAALKKAILTQSTSNINLTNADMNNDGNIDASDFAQLKVKLLN | 74.7 | 100 | 100 | 100 | 4.5 | 0.0045 | 1e+06 | 67 | 0.048 | 710000 | – | – | – | – | –
4 | recombinant JNK3 with an I49T-substituted dockerin polypeptide fused at the C-terminal (protein, not shown: large carriers; small tags and cut ends) MGLKGDVNNDGAIDALDIAALKKAILTQSTSNINLTNADMNNDGNIDATDFAQLKVKLLN | – | – | – | – | – | – | – | – | – | – | – | 83.1 | 100 | 100 | 100
5 | recombinant JNK3 of which an I49N-substituted dockerin polypeptide was fused at the N-terminal (protein, not shown: large carriers; small tags and cut ends) MGLKGDVNNDGAIDALDIAALKKAILTQSTSNINLTNADMNNDGNIDANDFAQLKVKLLN | 65.9 | 94.1 | 100 | 100 | 3.7 | 0.005 | 1.3e+06 | 56 | 0.089 | 1.6e+06 | – | – | – | – | –
6 | recombinant JNK3 of which an L16T/I49T-substituted dockerin polypeptide was fused at the C-terminal (protein, not shown: large carriers; small tags and cut ends) MGLKGDVNNDGAIDATDIAALKKAILTQSTSNINLTNADMNNDGNIDATDFAQLKVKLLN | – | – | – | – | – | – | – | – | – | – | – | 55.7 | 100 | 100 | 100

Other lines, results leading:

Row | rate of eluted recombinant protein (%) at 5 min [1] [%] | rate of eluted recombinant protein (%) at 30 min [1] [%] | rate of eluted recombinant protein (%) at 60 min [1] [%] | rate of eluted recombinant protein (%) at 360 min [1] [%] | Kd [2] [nM] | koff [2] [s⁻¹] | kon [2] [M⁻¹ s⁻¹] | Kd [3] [nM] | koff [3] [s⁻¹] | kon [3] [M⁻¹ s⁻¹] | Kd [4] [nM] | rate of eluted recombinant protein (%) at 5 min [5] [%] | rate of eluted recombinant protein (%) at 30 min [5] [%] | rate of eluted recombinant protein (%) at 60 min [5] [%] | rate of eluted recombinant protein (%) at 360 min [5] [%] | Binder
7 | – | – | – | – | – | – | – | – | – | – | 5.2 | – | – | – | – | recombinant fused protein in which a dockerin polypeptide with the 48th amino acid alanine (A) substituted with serine (S) was fused at the N-terminal of … (protein, not shown: large carriers; small tags and cut ends, not fully specified (C-terminus)) MGLKGDVNNDGAIDALDIAALKKAILTQSTSNINLTNADMNNDGNIDSIDFAQLKVKLLN
8 | 100 | 100 | 100 | 100 | 2.2 | 0.0066 | 3e+06 | 170 | 0.05 | 300000 | – | – | – | – | – | recombinant JNK3 of which an I49G-substituted dockerin polypeptide is fused at the N-terminal (protein, not shown: large carriers; small tags and cut ends) MGLKGDVNNDGAIDALDIAALKKAILTQSTSNINLTNADMNNDGNIDAGDFAQLKVKLLN
9 | 66.5 | 100 | 100 | 100 | 3.8 | 0.006 | 1.6e+06 | 19 | 0.023 | 1.2e+06 | – | – | – | – | – | recombinant JNK3 of which an I49T-substituted dockerin polypeptide is fused at the N-terminal (protein, not shown: large carriers; small tags and cut ends) MGLKGDVNNDGAIDALDIAALKKAILTQSTSNINLTNADMNNDGNIDATDFAQLKVKLLN
10 | 25.3 | 53.3 | 68.2 | 100 | 7.6 | 0.0033 | 430000 | 8.1 | 0.011 | 1.4e+06 | – | – | – | – | – | recombinant JNK3 of which an I49V-substituted dockerin polypeptide is fused at the N-terminal (protein, not shown: large carriers; small tags and cut ends) MGLKGDVNNDGAIDALDIAALKKAILTQSTSNINLTNADMNNDGNIDAVDFAQLKVKLLN
11 | – | – | – | – | – | – | – | – | – | – | – | 1.5 | 10.5 | 20.9 | 100 | recombinant JNK3 of which a wild-type dockerin was fused at the C-terminal (protein, not shown: large carriers; small tags and cut ends) MGLKGDVNNDGAIDALDIAALKKAILTQSTSNINLTNADMNNDGNIDAIDFAQLKVKLLN
